What was measured:
Experiment in all cases: BLI; […]; 10x kinetics buffer, […]; global fit, 1:1 binding model; […]
[1] = biological target: SARS-CoV-2 BQ.1.1 RBD (SARS-CoV-2) (UniProt P0DTC2)
[2] = biological target: SARS-CoV-2 BA.2.86 RBD (SARS-CoV-2) (UniProt P0DTC2)
[3] = biological target: SARS-CoV-2 Delta RBD (SARS-CoV-2) (UniProt P0DTC2)
[4] = biological target: SARS-CoV-2 XBB.1.5 RBD (SARS-CoV-2) (UniProt P0DTC2)
[5] = biological target: SARS-CoV-2 BA.5 RBD (SARS-CoV-2) (UniProt P0DTC2)
[6] = biological target: SARS-CoV-2 BA.2.75.2 RBD (SARS-CoV-2) (UniProt P0DTC2)
[7] = biological target: SARS-CoV-2 BA.2.12.1 RBD (SARS-CoV-2) (UniProt P0DTC2)
[8] = biological target: SARS-CoV-2 Wuhan-Hu-1 RBD (SARS-CoV-2) (UniProt P0DTC2)

**Q.** Which results are given for “TRI2-2 homotrimeric miniprotein inhibitor (designed binder)”?
**A.** Kd [1]: 0.21 nM; koff [1]: 3.36e-05 s⁻¹; kon [1]: 160000 M⁻¹ s⁻¹; Kd [2]: 0.388 nM; koff [2]: 0.000131 s⁻¹; kon [2]: 339000 M⁻¹ s⁻¹; Kd [3]: 0.00114 nM; koff [3]: 2.95e-07 s⁻¹; kon [3]: 259000 M⁻¹ s⁻¹; Kd [4]: 0.658 nM; koff [4]: 0.000105 s⁻¹; kon [4]: 160000 M⁻¹ s⁻¹; Kd [5]: 0.0306 nM; koff [5]: 9.92e-06 s⁻¹; kon [5]: 325000 M⁻¹ s⁻¹; Kd [6]: 0.542 nM; koff [6]: 8.93e-05 s⁻¹; kon [6]: 165000 M⁻¹ s⁻¹; Kd [7]: 0.851 nM; koff [7]: 0.000117 s⁻¹; kon [7]: 137000 M⁻¹ s⁻¹; Kd [8]: 0.00121 nM; koff [8]: 3.46e-07 s⁻¹; kon [8]: 286000 M⁻¹ s⁻¹
